# Measured values published in US20220406376A1 (MacroGenics, published 2022).
# What was measured:
# [1] = target: T1, HER2/neu on the surface of target cells (N87, JIMT-1, MCF-7, MDA-MB231) (UniProt P04626 23-1255, limits assumed); experiment: flow cytometry on N87 gastric cancer cells, anti-hFc APC MFI
# T1 construct: whole, on cells
# [2] = target: T2, CD137 on the surface of cells (activated human T cells; engineered CHO cells) (human, UniProt Q07011 24-255); experiment: flow cytometry on activated pan T cells gated CD8, anti-hFc APC MFI
# T2 construct: whole, on cells; also called human CD137; cell surface expressed CD137
# T2 sequence (Q07011 24-255, change not shown): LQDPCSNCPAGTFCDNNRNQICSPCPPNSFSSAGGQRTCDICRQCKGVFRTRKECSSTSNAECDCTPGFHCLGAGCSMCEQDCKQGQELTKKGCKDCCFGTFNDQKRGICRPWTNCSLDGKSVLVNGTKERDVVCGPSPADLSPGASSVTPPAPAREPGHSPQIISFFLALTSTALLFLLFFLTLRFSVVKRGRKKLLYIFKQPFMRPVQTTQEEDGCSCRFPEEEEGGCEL
Binder,EC50 (read off the curve) [1] [nM],EC50 (read off the curve) [2] [nM]
"DART-F (bispecific antibody, human IgG1, kappa, L234A L235A) heavy: QVQLVQSGAEVKKPGASVKVSCKASGYTFTNYGMNWVRQAPGQGLEWMGWINTNIGEPTYTEEFKGRVTMTRDTSISTAYMELSRLRSDDTAVYYCARDDGYGNRVSYWGQGTLVTVSSASTKGPSVFPLAPSSKSTSGGTAALGCLVKDYFPEPVTVSWNSGALTSGVHTFPAVLQSSGLYSLSSVVTVPSSSLGTQTYICNVNHKPSNTKVDKRVEPKSCDKTHTCPPCPAPEAAGGPSVFLFPPKPKDTLMISRTPEVTCVVVDVSHEDPEVKFNWYVDGVEVHNAKTKPREEQYNSTYRVVSVLTVLHQDWLNGKEYKCKVSNKALPAPIEKTISKAKGQPREPQVYTLPPSREEMTKNQVSLSCAVKGFYPSDIAVEWESNGQPENNYKTTPPVLDSDGSFFLVSKLTVDKSRWQQGNVFSCSVMHEALHNRYTQKSLSLSPGK light: DIQMTQSPSSLSASVGDRVTITCKASQDISNYLSWFQQKPGKAPKTLIYRANRLQSGVPSRFSGSGSGTDFTLTISSLQPEDFATYYCLQHDEFPWTFGQGTKLEIKRTVAAPSVFIFPPSDEQLKSGTASVVCLLNNFYPREAKVQWKVDNALQSGNSQESVTEQDSKDSTYSLSSTLTLSKADYEKHKVYACEVTHQGLSSPVTKSFNRGEC chain 1: QVQLVQSGAEVKKPGASVKVSCKASGYTFTNYGMNWVRQAPGQGLEWMGWINTNIGEPTYTEEFKGRVTMTRDTSISTAYMELSRLRSDDTAVYYCARDDGYGNRVSYWGQGTLVTVSSASTKGPSVFPLAPSSKSTSGGTAALGCLVKDYFPEPVTVSWNSGALTSGVHTFPAVLQSSGLYSLSSVVTVPSSSLGTQTYICNVNHKPSNTKVDKRVEPKSCDKTHTCPPCPAPEAAGGPSVFLFPPKPKDTLMISRTPEVTCVVVDVSHEDPEVKFNWYVDGVEVHNAKTKPREEQYNSTYRVVSVLTVLHQDWLNGKEYKCKVSNKALPAPIEKTISKAKGQPREPQVYTLPPSREEMTKNQVSLWCLVKGFYPSDIAVEWESNGQPENNYKTTPPVLDSDGSFFLYSKLTVDKSRWQQGNVFSCSVMHEALHNHYTQKSLSLSPGGGGSGGGSGGGDIQMTQTTSSLSASLGDRVTISCRASQDISNYLNWYQQKPDGTVKLLIYYTSRLHSGVPSRFSGSGSGTDYSLTISNLEQEDIATYFCQQGNTLPYTFGGGTKLEIKGGGSGGGGQVQLQQPGAELVRPGASVKLSCKASGYTFTSYWINWVKQRPGQGLEWIGNIYPSDSYTNYDQKFKDKATLTVDKSSSTAYMQLSSPTSEDSAVYYCTKSGEYGKIGYYAMDYWGQGTSVTVSSGGCGGGEVAALEKEVAALEKEVAALEKEVAALEK chain 2: DIQMTQTTSSLSASLGDRVTISCRASQDISNYLNWYQQKPDGTVKLLIYYTSRLHSGVPSRFSGSGSGTDYSLTISNLEQEDIATYFCQQGNTLPYTFGGGTKLEIKGGGSGGGGQVQLQQPGAELVRPGASVKLSCKASGYTFTSYWINWVKQRPGQGLEWIGNIYPSDSYTNYDQKFKDKATLTVDKSSSTAYMQLSSPTSEDSAVYYCTKSGEYGKIGYYAMDYWGQGTSVTVSSGGCGGGKVAALKEKVAALKEKVAALKEKVAALKE",~0.5,~0.5
"DART-5 (bispecific antibody, human IgG1, kappa, L234A L235A) heavy: QVQLVQSGAEVKKPGASVKVSCKASGYTFTNYGMNWVRQAPGQGLEWMGWINTNIGEPTYTEEFKGRVTMTRDTSISTAYMELSRLRSDDTAVYYCARDDGYGNRVSYWGQGTLVTVSSASTKGPSVFPLAPSSKSTSGGTAALGCLVKDYFPEPVTVSWNSGALTSGVHTFPAVLQSSGLYSLSSVVTVPSSSLGTQTYICNVNHKPSNTKVDKRVEPKSCDKTHTCPPCPAPEAAGGPSVFLFPPKPKDTLMISRTPEVTCVVVDVSHEDPEVKFNWYVDGVEVHNAKTKPREEQYNSTYRVVSVLTVLHQDWLNGKEYKCKVSNKALPAPIEKTISKAKGQPREPQVYTLPPSREEMTKNQVSLSCAVKGFYPSDIAVEWESNGQPENNYKTTPPVLDSDGSFFLVSKLTVDKSRWQQGNVFSCSVMHEALHNRYTQKSLSLSPGK light: DIQMTQSPSSLSASVGDRVTITCKASQDISNYLSWFQQKPGKAPKTLIYRANRLQSGVPSRFSGSGSGTDFTLTISSLQPEDFATYYCLQHDEFPWTFGQGTKLEIKRTVAAPSVFIFPPSDEQLKSGTASVVCLLNNFYPREAKVQWKVDNALQSGNSQESVTEQDSKDSTYSLSSTLTLSKADYEKHKVYACEVTHQGLSSPVTKSFNRGEC chain 1: QVQLVQSGAEVKKPGASVKVSCKASGYTFTNYGMNWVRQAPGQGLEWMGWINTNIGEPTYTEEFKGRVTMTRDTSISTAYMELSRLRSDDTAVYYCARDDGYGNRVSYWGQGTLVTVSSASTKGPSVFPLAPSSKSTSGGTAALGCLVKDYFPEPVTVSWNSGALTSGVHTFPAVLQSSGLYSLSSVVTVPSSSLGTQTYICNVNHKPSNTKVDKRVEPKSCDKTHTCPPCPAPEAAGGPSVFLFPPKPKDTLMISRTPEVTCVVVDVSHEDPEVKFNWYVDGVEVHNAKTKPREEQYNSTYRVVSVLTVLHQDWLNGKEYKCKVSNKALPAPIEKTISKAKGQPREPQVYTLPPSREEMTKNQVSLWCLVKGFYPSDIAVEWESNGQPENNYKTTPPVLDSDGSFFLYSKLTVDKSRWQQGNVFSCSVMHEALHNHYTQKSLSLSPGGGGSGGGSGGGSYELTQPPSVSVSPGQTASITCSGDNIGDQYAHWYQQKPGQSPVLVIYQDKNRPSGIPERFSGSNSGNTATLTISGTQAMDEADYYCATYTGFGSLAVFGGGTKLTVLGGGSGGGGEVQLVQSGAEVKKPGESLRISCKGSGYSFSTYWISWVRQMPGKGLEWMGKIYPGDSYTNYSPSFQGQVTISADKSISTAYLQWSSLKASDTAMYYCARGYGIFDYWGQGTLVTVSSGGCGGGEVAALEKEVAALEKEVAALEKEVAALEK chain 2: SYELTQPPSVSVSPGQTASITCSGDNIGDQYAHWYQQKPGQSPVLVIYQDKNRPSGIPERFSGSNSGNTATLTISGTQAMDEADYYCATYTGFGSLAVFGGGTKLTVLGGGSGGGGEVQLVQSGAEVKKPGESLRISCKGSGYSFSTYWISWVRQMPGKGLEWMGKIYPGDSYTNYSPSFQGQVTISADKSISTAYLQWSSLKASDTAMYYCARGYGIFDYWGQGTLVTVSSGGCGGGKVAALKEKVAALKEKVAALKEKVAALKE",~0.5,–
DART-1 (bispecific antibody) chain 1: not shown chain 2: EIVLTQSPATLSLSPGERATLSCRASQSVSSYLAWYQQKPGQAPRLLIYDASNRATGIPARFSGSGSGTDFTLTISSLEPEDFAVYYCQQRSNWPPALTFGGGTKVEIKGGGSGGGGQVQLVQSGAEVKKPGASVKVSCKASGYTFTNYGMNWVRQAPGQGLEWMGWINTNIGEPTYTEEFKGRVTMTRDTSISTAYMELSRLRSDDTAVYYCARDDGYGNRVSYWGQGTLVTVSSGGCGGGKVAACKEKVAALKEKVAALKEKVAALKE,~0.4,~0.1
